Assays:
[1] = system: ERK1, ERK2, JNK1 and JNK2; assay: western blot of phosphorylated MAP kinases in cultured human corneal epithelium; assay type: cell-based; settings: human epithelial cells
Method: In order to evaluate the effect of GDNF and other neurotrophic factors on the activation of signal transduction pathways in cultured corneal epithelial and stromal keratocytes, western blots were performed for detecting an accumulation of phosphorylated MAP kinases ERK and JNK in the presence of GDNF, NGF and BDNF. Human stromal keratocytes were cultured in RPMI 1640 medium containing L-glutamine (glutaMAX) or DMEM with 10% FBS for one day and starved in serum-free medium for another day. Cultures were then washed with PBS and incubated in serum-free DMEM without additives or with recombinant human GDNF (200 ng/ml), recombinant human NGF (200 ng/ml) and recombinant human BDNF (200 ng/ml) (all obtained from R & D Systems, Mineapolis, Minn., USA) for 30 min. Some cultures were incubated with an inhibitor of MAP kinases (PD 98059, Torcris Cookson Ballwin, Mo., USA) at 100 μM for 1 h prior to exposure to neurotrophines. After washing with PBS, culture cells were solubilized in lysis buffer containing 50 mM Tris-Cl (pH 8.0), 150 mM NaCl, 0.02% sodium azide, 100 μg/ml PMSF, 1% Triton X-100 and a mixture of several protein inhibitors (Complete®, Boehringer Mannheim) (one tablet/50 ml buffer). 50 μg total protein per lane was fractionated by a 10% STS-MOPS NUPAGE Bis-tris gel (NOVEX, San Diego, Calif., USA) and blotted onto nitrocellulose membrane. Membranes were stained with diluted polyclonal antibodies against ERK1, ERK2, JNK1 and JNK2 (Santa Cruz Biotechnology, Santa Cruz, Calif., USA). Also a polyclonal antibody was used which recognizes the […] form of either ERK1 and ERK2 which was raised against the catalytic core of the phosphorylated threonine residue 183 and tyrosine residue 185 of mammalian ERK2. Similarily, a polyclonal antibody recognizing the phosphorylated form of JNK1 and JNK2 was used (both from Promega). In the last step the membranes were visualized with the ECL western blot analysis system (Amersham).

corneal epithelial cells = assay: modified Boyden chamber migration assay; assay type: cell-based; settings: 250 ng/ml in lower well
Method: In order to further evaluate the chemotactic effect of GDNF on corneal epithelial cells, a modified Boyden chamber assay was used. 4×10^5 cells from the either primary cultured cells or the corneal epithelial cell line were seeded onto tissue culture inserts containing a polyethylene terephthalate (PET) filter having a pore size of 8 μm (Falcon). Within 4 hours after seeding most cells had attached to the filter and formed a semiconfluent monolayer. The medium was then changed to SHEM without additives in the upper well and SHEM with GDNF (250 ng/ml) in the lower well. After 24 h of culture cells were removed from the surface of the insert by gentle scrubbing with a rubber policeman. Cells on the bottom of the insert (which had migrated through the filter) were fixed with −20° C. methanol and stained with crystal violet. The entire surface of the filters was screened for cells under the microscope.

B1: GDNF: recombinant human GDNF having the amino acid sequence of human wild-type GDNF (GenBank L19063, L15306) (protein)
chain: SPDKQMAVLPRRERNRQAAAANPENSRGKGRRGQRGKNRGCVLTAIHLNVTDLGLGYETKEELIFRYCSGSCDAAETTYDKILKNLSRNRRLVSDKVGQACCRPIAFDDDLSFLDDNLVYHILRKHSAKRCGCI
[1]; 200 ng/ml factor vs serum-free control medium
  phosphorylation of ERK1 and ERK2: induced
[1]; vs control
  phosphorylation of JNK1/2: not induced
Corneal epithelial cells
  increase of number of migrated cells over control: more than 6 fold
Corneal epithelial cells; 8 μm pore size, 24 h, control 19±6.8
  number of cells migrated through the filter: 117±37.6
